Measured values: the supplement of paper PMC10567573

B1: CCND1 (parent)
chain: PEAEENKQIIRKHAQTFVALCATD

Variants of: B1
Test: protein stability index of a GFP-peptide fusion (GPS, HEK-293T) (PSI 1-6); higher = more stable
Settings: c terminus: a fixed tail appended
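Note: lentivirally expressed fusions sorted by FACS into six bins by GFP to DsRed ratio, PSI derived from sequencing read proportions per bin multiplied by bin number.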

First: PEAEGNKQIIRKHAQTFVALCATD [E5G]
Second: PEAEHNKQIIRKHAQTFVALCATD [E5H]
The protein stability index of the first is higher: 2.47 for the first, 2.24 for the second.

First: PEAEINKQIIRKHAQTFVALCATD [E5I]
Second: PEAEKNKQIIRKHAQTFVALCATD [E5K]
The protein stability index of the first is lower: 2.05 for the first, 2.17 for the second.

Compared with PEAELNKQIIRKHAQTFVALCATD [E5L], PEAEMNKQIIRKHAQTFVALCATD [E5M] is higher in protein stability index: 1.91 for the first, 2.99 for the second.

First: PEAENNKQIIRKHAQTFVALCATD [E5N]
Second: PEAEPNKQIIRKHAQTFVALCATD [E5P]
The protein stability index of the first is lower: 2.25 for the first, 2.33 for the second.

Going from PEAEQNKQIIRKHAQTFVALCATD [E5Q] to PEAERNKQIIRKHAQTFVALCATD [E5R], the protein stability index falls from 2.33 to 1.93.

First: PEAESNKQIIRKHAQTFVALCATD [E5S]
Second: PEAETNKQIIRKHAQTFVALCATD [E5T]
The protein stability index of the first is higher: 1.79 for the first, 1.69 for the second.

Going from PEAEVNKQIIRKHAQTFVALCATD [E5V] to PEAEWNKQIIRKHAQTFVALCATD [E5W], the protein stability index falls from 2.55 to 2.04.

Going from PEAEYNKQIIRKHAQTFVALCATD [E5Y] to PEAEEAKQIIRKHAQTFVALCATD [N6A], the protein stability index falls from 2.21 to 2.14.

Compared with PEAEECKQIIRKHAQTFVALCATD [N6C], PEAEEDKQIIRKHAQTFVALCATD [N6D] is higher in protein stability index: 1.93 for the first, 2.79 for the second.

First: PEAEEEKQIIRKHAQTFVALCATD [N6E]
Second: PEAEEFKQIIRKHAQTFVALCATD [N6F]
The protein stability index of the first is higher: 2.92 for the first, 2.17 for the second.

Compared with PEAEEGKQIIRKHAQTFVALCATD [N6G], PEAEEHKQIIRKHAQTFVALCATD [N6H] is higher in protein stability index: 2.35 for the first, 3.04 for the second.

First: PEAEEIKQIIRKHAQTFVALCATD [N6I]
Second: PEAEEKKQIIRKHAQTFVALCATD [N6K]
The protein stability index of the first is lower: 2.26 for the first, 2.38 for the second.

Going from PEAEELKQIIRKHAQTFVALCATD [N6L] to PEAEEMKQIIRKHAQTFVALCATD [N6M], the protein stability index rises from 1.88 to 2.39.

First: PEAEEPKQIIRKHAQTFVALCATD [N6P]
Second: PEAEEQKQIIRKHAQTFVALCATD [N6Q]
The protein stability index of the first is lower: 2.12 for the first, 2.59 for the second.

Compared with PEAEERKQIIRKHAQTFVALCATD [N6R], PEAEESKQIIRKHAQTFVALCATD [N6S] is lower in protein stability index: 2.22 for the first, 2.12 for the second.

First: PEAEETKQIIRKHAQTFVALCATD [N6T]
Second: PEAEEVKQIIRKHAQTFVALCATD [N6V]
The protein stability index of the first is higher: 2 for the first, 1.85 for the second.

Going from PEAEEWKQIIRKHAQTFVALCATD [N6W] to PEAEEYKQIIRKHAQTFVALCATD [N6Y], the protein stability index rises from 2.42 to 3.05.

First: PEAEENAQIIRKHAQTFVALCATD [K7A]
Second: PEAEENCQIIRKHAQTFVALCATD [K7C]
The protein stability index of the first is higher: 3.37 for the first, 2.92 for the second.

Going from PEAEENDQIIRKHAQTFVALCATD [K7D] to PEAEENEQIIRKHAQTFVALCATD [K7E], the protein stability index rises from 3.69 to 3.84.

First: PEAEENFQIIRKHAQTFVALCATD [K7F]
Second: PEAEENGQIIRKHAQTFVALCATD [K7G]
The protein stability index of the first is lower: 2.71 for the first, 3.26 for the second.

First: PEAEENHQIIRKHAQTFVALCATD [K7H]
Second: PEAEENIQIIRKHAQTFVALCATD [K7I]
The protein stability index of the first is higher: 3.36 for the first, 2.6 for the second.

Compared with PEAEENLQIIRKHAQTFVALCATD [K7L], PEAEENMQIIRKHAQTFVALCATD [K7M] is higher in protein stability index: 2.95 for the first, 3.17 for the second.

Compared with PEAEENNQIIRKHAQTFVALCATD [K7N], PEAEENPQIIRKHAQTFVALCATD [K7P] is lower in protein stability index: 3.78 for the first, 3.19 for the second.

Variant PEAEENQQIIRKHAQTFVALCATD [K7Q] has a protein stability index of 2.98.
